Reference: patent publication US6528618B1, “Anti-inflammatory peptides derived from C-reactive protein” (Yeda Research and Development Co. Ltd., priority 1997, dated 2003)
Like-named read-outs stand apart in the source and are kept apart here. Where a SMILES comes first, the peptide text is derived from it.

Legend:
hCG = molecular target: T1, hCG (Homo sapiens, UniProt P08311); test: Resistance to proteolysis by hCG, degradation profile by RP-HPLC; assay type: in vitro ADME; conditions: PBS, 37° C., up to 12 hours
T1 construct: Neutrophils (1.4 billion) were isolated from whole blood obtained from a single healthy laboratory donor; from tissue; host or cells: neutrophils from whole blood of a single healthy donor
T1 sequence (P08311 21-243 limits assumed): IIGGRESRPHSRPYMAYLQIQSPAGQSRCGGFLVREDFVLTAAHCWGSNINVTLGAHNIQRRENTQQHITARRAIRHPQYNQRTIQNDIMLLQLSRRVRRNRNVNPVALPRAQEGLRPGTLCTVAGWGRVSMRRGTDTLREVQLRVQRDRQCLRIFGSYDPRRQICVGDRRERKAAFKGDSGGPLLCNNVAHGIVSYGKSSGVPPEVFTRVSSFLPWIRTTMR
Procedure: (§1) (vii) Degradation profiles of peptides by RP-HPLC: Several active peptide inhibitors were dissolved in calcium- and magnesium-free phosphate-buffered saline (PBS), 125 μg /250 μL, mixed with […] of hLE or hCG in 250 μL PBS and incubated at 37° C. Periodically (up to 12 hrs), 100 μL samples were removed from the reaction vessel. The samples were diluted with 150 μL of 0.1% TFA, frozen with liquid nitrogen, and stored at −20° C. prior to HPLC analysis.
(§2) The stability of the peptide bonds in peptide 6 were evaluated by incubating the peptide with hLE and hCG and monitoring degradation profiles of the peptide by reverse-phase HPLC. Briefly, peptide 6 was dissolved in calcium- and magnesium-free phosphate-buffered saline (PBS), 50 μg/250 μL, mixed with 3 μg of hLE or hCG in 250 μL PBS and incubated at 37° C. Periodically, after 1,3,8, and 12 hrs incubation, 100 μL samples were removed from the reaction vessel. The samples were diluted with 150 μL of 0.1% TFA, frozen with liquid nitrogen, and stored at −20° C. prior to HPLC analysis.

[1] = molecular target: T2, human leukocyte elastase (hLE) (Homo sapiens, UniProt P08246); test: In vitro inhibition of hLE (cleavage of MeOSuc-AAPV-NA); assay type: biochemical
T2 construct: Neutrophils (1.4 billion) were isolated from whole blood obtained from a single healthy laboratory donor; from tissue; host or cells: neutrophils from whole blood of a single healthy donor
T2 sequence (P08246 30-247 limits assumed): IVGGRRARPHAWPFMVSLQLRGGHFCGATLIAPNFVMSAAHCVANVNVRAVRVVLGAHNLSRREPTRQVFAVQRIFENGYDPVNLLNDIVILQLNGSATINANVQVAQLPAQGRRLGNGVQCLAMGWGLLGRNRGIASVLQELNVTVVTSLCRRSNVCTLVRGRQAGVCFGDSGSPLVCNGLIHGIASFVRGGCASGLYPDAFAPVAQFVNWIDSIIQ

[2] = molecular target: T3, human leukocyte cathepsin G (hCG) (Homo sapiens, UniProt P08311); test: In vitro inhibition of hCG (cleavage of Suc-AAPF-NA); assay type: biochemical
T3 construct: Neutrophils (1.4 billion) were isolated from whole blood obtained from a single healthy laboratory donor; from tissue; host or cells: neutrophils from whole blood of a single healthy donor
T3 sequence (P08311 21-243 limits assumed): T1 sequence (P08311 21-243 limits assumed)
Procedure, shortened: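 Purified hCG (1.2 μg, about 40 picomol) incubated with 600 μM Suc-AAPF-NA and CRP-derived peptides at 1–100 μM in 100 mM Hepes pH 7.4, 0.05% Brij-35, 5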

hLE [3] = molecular target: T4, hLE (Homo sapiens, UniProt P08246); test: Resistance to proteolysis by hLE, degradation profile by RP-HPLC; assay type: in vitro ADME; conditions: PBS, 37° C., up to 12 hours
T4 construct: Neutrophils (1.4 billion) were isolated from whole blood obtained from a single healthy laboratory donor; from tissue; host or cells: neutrophils from whole blood of a single healthy donor
T4 sequence (P08246 30-247 limits assumed): T2 sequence (P08246 30-247 limits assumed)
Procedure: as §1, §2

[4] = molecular target: T5, human leukocyte cathepsin G (human, UniProt P08311 21-244); test: hCG enzyme inhibition kinetics, cleavage of Suc-AAPF-NA
T5 construct: mature; Active enzyme purified from human neutrophils; also called hCG; human Cathepsin G
T5 sequence (looked up): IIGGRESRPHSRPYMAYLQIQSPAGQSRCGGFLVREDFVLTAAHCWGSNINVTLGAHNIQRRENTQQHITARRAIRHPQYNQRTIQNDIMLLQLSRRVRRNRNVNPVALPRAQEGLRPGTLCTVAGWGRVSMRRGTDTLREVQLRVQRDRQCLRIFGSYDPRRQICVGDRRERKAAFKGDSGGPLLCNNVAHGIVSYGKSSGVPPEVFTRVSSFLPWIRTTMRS
Procedure: (§3) (v) Inhibition experiments with hLE: Peptides were dissolved in 100 mM Hepes buffer pH 7.4 containing 0.1% Brij-35 with 10%. DMSO to yield 300 µM solutions, which were used to make further dilutions with the same buffer, and 80 µL aliquots were added in duplicates to 96-well plates. The substrate, 600 µM MeOSuc-AAPV-NA in the same buffer with 5% DMSO, was added to each well in addition to the blank wells, and the plate was placed in the plate reader equilibrated to 37 C (Dynateck MR-6000). Lyophilized aliquots of hLE were dissolved in 1600 µL of 100 mM Hepes buffer without DMSO, and 80 µL of the enzyme solution was added to the peptides and substrate to initiate the reaction. The kinetics program read the plate at 405 nm every 2 min for 20 min (with a 3 sec shaking period between readings), and plotted the results as well as the average of each duplicate. The final volume was 240 µL containing: 5% DMSO, 1–100 µM of peptide, 200 µM substrate, and 0.75 µg (~25 picomol) enzyme.
(§4) vi) Inhibition experiments with hCG: Similar conditions to hLE inhibition experiments were used except the substrate: 80 µL of 1.80 mM Suc-AAPF-NA. The enzyme was dissolved in 800 µL buffer, and the reaction was monitored every 6 min for 1 hour. The final volume was 240 µL containing: 5% DMSO, 1–100 µM peptide, 600 µM substrate, and 1.2 µg enzyme (about 40 picomol).

human leukocyte elastase [5] = molecular target: T6, human leukocyte elastase (human, UniProt P08246 30-267); test: hLE enzyme inhibition kinetics, cleavage of MeOSuc-AAPV-NA
T6 construct: mature; Active enzyme purified from human neutrophils; also called hLE
T6 sequence (looked up): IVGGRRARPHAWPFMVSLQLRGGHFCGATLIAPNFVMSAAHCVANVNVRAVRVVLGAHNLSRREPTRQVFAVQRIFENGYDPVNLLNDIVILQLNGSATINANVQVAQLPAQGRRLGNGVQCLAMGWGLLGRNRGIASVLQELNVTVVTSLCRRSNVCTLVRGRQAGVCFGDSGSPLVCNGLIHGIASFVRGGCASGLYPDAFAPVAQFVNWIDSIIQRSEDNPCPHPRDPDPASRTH
Procedure: as §3
(§5) The hLE inhibitory capability of CRP-derived peptides was evaluated by inhibiting the enzymatic cleavage of MeOSuc-AAPV-NA as described in Materials and Methods (section v).

human leukocyte elastase [6] = molecular target: T6, human leukocyte elastase; test: as above; remark: listed apart in the source
Procedure: as §3, §5

[7] = molecular target: T5, human leukocyte cathepsin G; test: hCG enzyme inhibition kinetics, cleavage of Suc-AAPF-NA; remark: listed apart in the source
Procedure: as §3, §4

[8] = molecular target: specific receptors on monocytes; conditions: in vitro; read-out: Kd, binding to receptors on monocytes; cited from earlier work
[9] = tested on: specific receptors on human neutrophils; conditions: in vitro; read-out: Kd, binding to receptors on human neutrophils; cited from earlier work
hLE [10] = molecular target: T7, hLE (Homo sapiens, UniProt P08246); conditions: CRP as a whole protein; cited from earlier work
T7 sequence (P08246 30-267): T6 sequence (looked up)

[11] = peptide concentrations above 50 μM

## CC[C@H](C)[C@H](NC(=O)[C@H](CC(=O)O)NC(=O)[C@H](CCCCN)NC(=O)[C@H](CO)NC(=O)[C@H](Cc1c[nH]c2ccccc12)NC(=O)[C@H](Cc1ccccc1)NC(=O)[C@@H](NC(=O)[C@H](CC(C)C)NC(=O)[C@@H](NC(=O)[C@@H](N)CCC(=O)O)[C@@H](C)CC)[C@@H](C)CC)C(=O)NCC(=O)N[C@@H](Cc1ccc(O)cc1)C(=O)N[C@@H](CO)C(=O)N[C@@H](Cc1ccccc1)C(=O)N[C@H](C(=O)O)[C@@H](C)O [Peptide 6, Glu-Ile-Leu-Ile-Phe-Trp-Ser-Lys-Asp-Ile-Gly-Tyr-Ser-Phe-Thr] (H-EILIFWSKDIGYSFT-OH; N-terminus and C-terminus assumed)
hCG
  cleavage products after incubation with hCG: no cleavage products were observed
[1]
  hLE inhibitory activity (in words): submicromolar concentrations
[1]; hLE Ki [μM], Table 1, substrate MeOSuc-AAPV-NA 200 μM, pH 7.4, 37 C
  Ki: 0.18 ± 0.03 µM
[1]; [11]
  hLE inhibition at concentrations above 50 μM: Total inhibition
[2]
  hCG inhibitory activity (in words): submicromolar concentrations
[2]; hCG Ki [μM], Table 1, substrate Suc-AAPF-NA 600 μM, pH 7.4
  Ki: 0.25 ± 0.05 µM
[2]; [11]
  hCG inhibition at concentrations above 50 μM: total inhibition
hLE [3]
  cleavage products after incubation with hLE: no cleavage products were observed

## EILIFWSKDI (Synthetic; also called pep14) [peptide 14 (CRP62-71)]
[4]
  Ki: 6 µM
Human leukocyte elastase [5]
  Ki: 6.7 µM

## EILIFWSKDIGY (Synthetic; also called pep13) [peptide 13 (CRP62-73)]
[4]
  Ki: 4 µM
Human leukocyte elastase [5]
  Ki: 1.1 µM

B1: peptide 18 (peptide)
peptide: DILIFWSKDIGYSFT
notes: Analog of peptide 6 (CRP62-76) with Glu62 replaced by Asp; also called pep18
Human leukocyte elastase [6]
  fold lower inhibitory activity against peptide 6: 10 fold
[4]
  Ki: 2.6 µM
Human leukocyte elastase [5]
  Ki: 2.2 µM

## ILFEVPEVTVAPVHI (Synthetic 15-mer) [peptide 10 (CRP82-96)]
Human leukocyte elastase [6]
  Ki: 55 µM
[7]
  Ki: 150 µM

## KRQDNEILIFWSKDI (Synthetic 15-mer) [peptide 5 (CRP57-71)]
Human leukocyte elastase [6]
  Ki: 85 µM
[7]
  Ki: 180 µM

B2: CRP: plasma protein classified as a major acute phase reactant; five identical sub-units of 206 amino acids (pentraxin) (protein, listed as Homo sapiens)
chain: ETDMSRKAFVFPKESDTSYVSLKAPLTKPLKAFTVCLHFYTELSSTRGYSIFSYATKRQDNEILIFWSKDIGYSFTVGGSEILFEVPEVTVAPVHICTSWESASGIVEFWVDGKPRVRKSLKKGYTVGAEASIILGQEQDSFGGNFEGSQSLVGDIGNVNMWDFVLSPDEINTIYLGGPFSPNVLNWRALKYEVQGEVFTKPQLWP
modifications: pentamer
[8]
  Kd: ~100 nM
[9]
  Kd: ~50 nM
hLE [10]
  inhibitory effect of whole CRP on hLE: no inhibitory effect

## ILIFWSKDIGYSFT (Synthetic) [peptide 11 (CRP63-76)]
Human leukocyte elastase [6]
  fold decrease in hLE inhibition against peptide 6: ~20 fold
[4]
  Ki: 15 µM
Human leukocyte elastase [5]
  Ki: 4.5 µM
